Residue numbers refer to the chain shown, from its start. Names may count otherwise.
Tests used:
[1] = mice, cited from earlier work
HL29 (ATCC HTB-38) cells = assay: Viability of human colorectal adenocarcinoma cells incubated 48 hr with SN38G-treated bacterial lysates (XTT viability assay); type: cell-based
Procedure: Two BW25113 bacterial cultures were used: Vector bacteria expressing empty vector, and K125A bacteria containing the DOIN vector expressing GusR mutant repressor K125A. The cultures were incubated with PNPG to induce the GUS operon and were then incubated with the indicated SN-38G (SantaCruz, 212931A) concentrations, followed by lysis of the bacteria. HL29 (ATCC® HTB-38™) cells were maintained according to the manufacture instructions and incubated for 48 hr with the different bacterial extractions. The viability of the cells, incubated with the bacterial lysates, were determined using the XTT viability assay, in three independent biological repeats using four replicates.
GusR mutant K125A reduces the cytotoxicity of SN38 by inhibiting the metabolism of SN38G by the bacterial GUS, in an enzyme concentration-dependent manner. The study was performed as described in FIGURE, with the following modifications: The cultures were incubated with PNPG to induce the GUS operon, diluted as indicated, followed by incubation with 1 μM of SN-38G, and subsequently, lysis of the bacteria. The viability of the cells was determined as above.
Bacteria (WT and GUS-inhibitor producing bacteria) are grown and induced using PNPG as described above. Following induction, the bacteria are lysed, and extracts are incubated with SN-38G or PNPG. At the end of the incubation period, the PNPG-incubated bacterial extracts are taken to determine the activity of the GUS. In parallel, the SN-38G-incubated bacterial extracts are added to HT29 cell culture to determine cytotoxicity and CC50.
The rate of SN38G conversion to SN38 by the bacterial GUS in the samples is dependent on the reaction conditions (e.g., GUS enzyme activity, substrate concentration etc.), thus the resulting samples contained different concentrations of SN38. The samples were then incubated with HL29, human colorectal adenocarcinoma cell-line, and the viability of the cells was determined. Different concentrations of SN38G and bacteria were examined to evaluate their effect on the cytotoxicity of SN38. […]

GUS enzyme [2] = assay: GUS assay: GUS specific activity in bacterial cultures, PNPG substrate, absorbance at 410 nm; type: cell-based, E. coli
Procedure: The GUS activity is performed as previously described elsewhere, including all required assay controls. Briefly, bacterial cultures grow to reach OD600 of 0.6. Once reached the targeted growth phase, the culture is transduced with the GusR_K125A-expressing vector. One hour later, the bacterial cultures are added to the assay reaction, along with the substrate (PNPG) and the assay buffer. The assay reaction is incubated at 37° C. for 6 hours and the activity of the GUS operon is monitored by the presence of the hydrolysis product (PNP) by measuring the absorbance at 410 nm. The arbitrary units of the GUS operon specific activity are calculated as follows: […]
Inhibition of the GUS activity using the GusR_K125A mutant was next evaluated by the inventors. More specifically, two E. coli bacterial hosts were used: BW25113 and MG1655. A plasmid that expresses the mutant repressor K125A was introduced into each of these hosts (BW25113 K125A and MG1655 K125A). The activity of the GUS operon was determined in the absence (−) or presence (+) of the GUS operon inducer PNPG. The specific units were calculated as described above. As shown by FIG. 4, GUS activity is inhibited in the presence of the dominant negative mutant repressor K125A in two bacterial hosts.

[3] = replacement of carboxylate-contacting residue; cited from earlier work
GUS enzyme [4] = conditions: induced with 1 mM PNPG; cited from earlier work
[5] = system: E. coli K-12 BW25113 and E. coli K12 MG1655; assay: TFU assay: transduction efficiency of phage-based particles into bacterial hosts; type: cell-based; conditions: 1 hr incubation with lysate
Procedure: FIG. 6. Transduction of the modulatory component into different microbiome isolates Transductions (TFU/ml) of the DOIN vector into microbiome isolates was determined using the TFU assay, as described previously. Test bacteria culture (MG1655 (grey bars), BW25113 (white bars)) was grown to reach mid-exponential growth phase and incubated for 1 hr with a lysate of transducing particles (modified bacteriophages) containing the DOIN vector expressing GusR K125A_CRISPR, used as the modulatory component. Ten-fold serial dilutions were plated in duplicates on selective plates, which only bacteria that were transduced were able to grow on. Dashed grey horizontal line indicates the assay limit of detection. Data represent at least two independent experiments.
The lysate titer is determined using the transducing forming units (TFU) assay as previously described elsewhere.
The produced lysates are used to transduce each of the abovementioned bacterial hosts, and the transduction efficiencies for each strain is determined by the TFU assay.
More specifically, phage-based particle lysate was prepared as described above. The transduction efficiency of the particles against the indicated bacterial host above was determined using the TFU assay, as described previously, and presented in Table 2. The tail used for transduction is TC1 (TC1 as denoted by SEQ ID NO: 4).

Molecule: CCc1c2c(nc3ccc(O)cc13)-c1cc3c(c(=O)n1C2)COC(=O)[C@]3(O)CC [SN38]
- time to peak concentration of SN38 ([1]; after administration of Irinotecan 80 mg/kg): 2 h
- peak concentration of SN38 ([1]; intestine, Irinotecan 80 mg/kg): around 1 μg/gr tissue weight

B1: K125A GusR (protein)
chain: MMDNMQTEAQPTRTRILNAAREIFSENGFHSASMKAICKSCAISPGTLYHHFISKEALIQAIILQDQERALARFREPIEGIHFVDYMVESIVSLTHEAFGQRALVVEIMAEGMRNPQVAAMLKNAHMTITEFVAQRMRDAQQKGEISPDINTAMTSRLLLDLTYGVLADIEAEDLAREASFAQGLRAMIGGILTAS
- rescue of cells from the toxic effect of SN38 (FIG. 9) (HL29 (ATCC HTB-38) cells; SN38G 0.1 μM, BW25113 bacteria): completely rescued
- cells rescued (viability, FIG. 9) (HL29 (ATCC HTB-38) cells; SN38G 1 μM, BW25113 bacteria, un-diluted): 60%
- cells rescued from SN38 toxicity (FIG. 10) (HL29 (ATCC HTB-38) cells; SN38G 1 μM, bacteria 6-fold diluted): ~100%
- GUS specific activity lower than in empty vector-expressing bacteria (GUS enzyme [2]; samples of the cytotoxicity study (BW25113)): around 10 fold
- GUS activity (specific activity, FIG. 4) (GUS enzyme [2]; two bacterial hosts, BW25113 and MG1655, absence or presence of PNPG): inhibited
- affinity to the GUS ligand [3]: significantly lower affinity
- GUS activity of bacterial cells containing an expression plasmid (GUS enzyme [4]): no GUS activity
- Transduction into microbiome isolates (FIG. 6) [5]: successful transduction

B2: Y164F GusR (protein)
chain: B1 chain with A125K, Y164F
- reduction of GUS activity (FIG. 7) (GUS enzyme [2]; BW25113 bacteria): 34 fold
- reduction of GUS activity (FIG. 7) (GUS enzyme [2]; MG1655 bacteria): ~1.5 fold

Source: US20250084398A1, “SYSTEMS FOR MODULATING DRUG METABOLISM BY CELLS, METHODS AND COMPOSITIONS THEREOF” (priority 2021, published 2025)
